Measured values as given in publication PMC9561264.
Several values for one entry are separate records, joined by “and”; a condition that tells them apart may be missing. Equal values may be shown once.

How the values were obtained:
[1] = target: hOGG1 K249Q;c-Myc;Max K249Q (human;human?;human?) (UniProt O15527+P01106); experiment: AFM (QD-Myc); settings: 8-oxoguanine 8 bp upstream of E-box, ~50% of length; FP at 25°C with 5 nM labelled DNA; EMSA room temp 30 min, 15% native PAGE 0.5x TBE 4°C; interaction buffer 20 mM Tris-HCl pH 7.6, 200 mM NaCl (Fig. S12) …
[2] = target: hOGG1 C28A;c-Myc;Max C28A (human;human?;human?) (UniProt O15527+P01106); experiment: AFM (QD-Myc); settings: 8-oxoguanine 8 bp upstream of E-box, ~50% of length; FP at 25°C with 5 nM labelled DNA; EMSA room temp 30 min, 15% native PAGE 0.5x TBE 4°C; interaction buffer 20 mM Tris-HCl pH 7.6, 200 mM NaCl (Fig. S12) …
[3] = target: T1, hOGG1 wild type;c-Myc (human;human?) (UniProt O15527+P01106); experiment: AFM (QD-Myc); settings: 8-oxoguanine 8 bp upstream of E-box, ~50% of length; FP at 25°C with 5 nM labelled DNA; EMSA room temp 30 min, 15% native PAGE 0.5x TBE 4°C; interaction buffer 20 mM Tris-HCl pH 7.6, 200 mM NaCl (Fig. S12) …
c-Myc;Max = c-Myc;Max (UniProt P01106); experiment: AFM (QD-Myc); settings: 8-oxoguanine 8 bp upstream of E-box, ~50% of length; FP at 25°C with 5 nM labelled DNA; EMSA room temp 30 min, 15% native PAGE 0.5x TBE 4°C; interaction buffer 20 mM Tris-HCl pH 7.6, 200 mM NaCl (Fig. S12) …
[4] = target: T2, hOGG1 wild type;c-Myc;Max (human;human?;human?) (UniProt O15527+P01106); experiment: AFM (QD-Myc); settings: FP at 25°C with 5 nM labelled DNA, EMSA room temp 30 min, 15% native PAGE 0.5x TBE 4°C, interaction buffer 20 mM Tris-HCl pH 7.6, 200 mM NaCl (Fig. S12) …
hOGG1 C28A C28A (human) = hOGG1 C28A C28A (human) (UniProt O15527); experiment: AFM; settings: oxidising; specificity 779 ± 471; 8-oxoguanine at ~50% (49.8%) of length; FP at 25°C with 5 nM labelled DNA; EMSA room temp 30 min, 15% native PAGE 0.5x TBE 4°C; interaction buffer 20 mM Tris-HCl pH 7.6, 200 mM NaCl (Fig. S12); reduci
[5] = target: hOGG1 K249Q K249Q (human) (UniProt O15527); experiment: AFM; settings: 8-oxoguanine at ~50% (49.8%) of length, FP at 25°C with 5 nM labelled DNA, EMSA room temp 30 min, 15% native PAGE 0.5x TBE 4°C
[6] = target: T1, hOGG1 wild type;c-Myc (human;human?); experiment: AFM; settings: 30 nM Myc, 8-oxoguanine at ~50% (49.8%) of length, FP at 25°C with 5 nM labelled DNA, EMSA room temp 30 min, 15% native PAGE 0.5x TBE 4°C, interaction buffer 20 mM Tris-HCl pH 7.6, 200 mM NaCl (Fig. S12) …
[7] = target: hOGG1 C28A;c-Myc C28A (human;human?) (UniProt O15527+P01106); experiment: AFM; settings: 8-oxoguanine at ~50% (49.8%) of length; FP at 25°C with 5 nM labelled DNA; EMSA room temp 30 min, 15% native PAGE 0.5x TBE 4°C; interaction buffer 20 mM Tris-HCl pH 7.6, 200 mM NaCl (Fig. S12) …
[8] = target: hOGG1 K249Q;c-Myc K249Q (human;human?) (UniProt O15527+P01106); experiment: AFM; settings: 8-oxoguanine at ~50% (49.8%) of length, FP at 25°C with 5 nM labelled DNA, EMSA room temp 30 min, 15% native PAGE 0.5x TBE 4°C
[9] = target: T2, hOGG1 wild type;c-Myc;Max (human;human?;human?); experiment: AFM; settings: 8-oxoguanine at ~50% (49.8%) of length, FP at 25°C with 5 nM labelled DNA, EMSA room temp 30 min, 15% native PAGE 0.5x TBE 4°C

T2 sequence (P01106 whole entry, looked up, chain 1 of 2): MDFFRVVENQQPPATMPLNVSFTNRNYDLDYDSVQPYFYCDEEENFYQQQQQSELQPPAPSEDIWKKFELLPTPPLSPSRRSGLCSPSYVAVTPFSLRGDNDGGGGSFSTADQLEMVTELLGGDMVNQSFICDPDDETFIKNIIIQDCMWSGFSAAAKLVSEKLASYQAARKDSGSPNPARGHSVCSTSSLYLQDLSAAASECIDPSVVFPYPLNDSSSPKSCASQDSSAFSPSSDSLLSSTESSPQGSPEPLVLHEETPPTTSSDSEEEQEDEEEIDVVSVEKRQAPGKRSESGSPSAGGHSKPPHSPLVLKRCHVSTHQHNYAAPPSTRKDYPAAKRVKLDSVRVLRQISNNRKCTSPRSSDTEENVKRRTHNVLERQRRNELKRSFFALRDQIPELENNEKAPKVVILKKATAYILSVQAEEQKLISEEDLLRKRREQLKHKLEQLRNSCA
T2 sequence (O15527 whole entry, looked up, chain 2 of 2): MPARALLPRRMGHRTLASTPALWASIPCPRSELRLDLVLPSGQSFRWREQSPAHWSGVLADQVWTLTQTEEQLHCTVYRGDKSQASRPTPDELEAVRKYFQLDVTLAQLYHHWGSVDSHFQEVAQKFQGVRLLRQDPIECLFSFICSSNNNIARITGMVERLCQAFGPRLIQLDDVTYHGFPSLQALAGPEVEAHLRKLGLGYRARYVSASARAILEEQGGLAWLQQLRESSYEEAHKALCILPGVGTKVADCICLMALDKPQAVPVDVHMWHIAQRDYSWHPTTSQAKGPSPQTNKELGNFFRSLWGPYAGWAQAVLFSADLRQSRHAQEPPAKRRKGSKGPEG
T1 sequence (O15527 whole entry, chain 1 of 2): as the sequence (O15527 whole entry, looked up, chain 2 of 2) above
T1 sequence (P01106 16-454, chain 2 of 2): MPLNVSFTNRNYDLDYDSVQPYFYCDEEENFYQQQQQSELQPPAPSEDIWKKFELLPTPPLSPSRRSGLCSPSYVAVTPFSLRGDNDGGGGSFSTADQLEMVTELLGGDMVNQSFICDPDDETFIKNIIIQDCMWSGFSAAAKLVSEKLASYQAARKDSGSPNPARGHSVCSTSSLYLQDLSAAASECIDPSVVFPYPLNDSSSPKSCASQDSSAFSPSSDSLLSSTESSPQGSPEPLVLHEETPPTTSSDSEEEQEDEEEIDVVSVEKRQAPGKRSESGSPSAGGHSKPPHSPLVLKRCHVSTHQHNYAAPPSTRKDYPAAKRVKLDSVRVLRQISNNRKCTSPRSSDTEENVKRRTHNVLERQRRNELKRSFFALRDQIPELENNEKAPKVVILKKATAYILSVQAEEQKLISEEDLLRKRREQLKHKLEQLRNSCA
hOGG1 K249Q;c-Myc;Max K249Q (human;human?;human?), sequence (P01106 whole entry, looked up, chain 1 of 2): as the sequence (P01106 whole entry, looked up, chain 1 of 2) above
hOGG1 K249Q;c-Myc;Max K249Q (human;human?;human?), sequence (O15527 whole entry, looked up, stated change not applied, chain 2 of 2): as the sequence (O15527 whole entry, looked up, chain 2 of 2) above
c-Myc;Max, sequence (P01106 whole entry, looked up): as the sequence (P01106 whole entry, looked up, chain 1 of 2) above
hOGG1 K249Q;c-Myc K249Q (human;human?), sequence (O15527 whole entry K249Q, chain 1 of 2): as the sequence (O15527 whole entry, looked up, chain 2 of 2) above, with K249Q counted along it
hOGG1 K249Q;c-Myc K249Q (human;human?), sequence (P01106 16-454, chain 2 of 2): as the sequence (P01106 16-454, chain 2 of 2) above
hOGG1 K249Q K249Q (human), sequence (O15527 whole entry K249Q): as the sequence (O15527 whole entry, looked up, chain 2 of 2) above, with K249Q counted along it
hOGG1 C28A;c-Myc;Max C28A (human;human?;human?), sequence (P01106 whole entry, looked up, chain 1 of 2): as the sequence (P01106 whole entry, looked up, chain 1 of 2) above
hOGG1 C28A;c-Myc;Max C28A (human;human?;human?), sequence (O15527 whole entry, looked up, stated change not applied, chain 2 of 2): as the sequence (O15527 whole entry, looked up, chain 2 of 2) above
hOGG1 C28A C28A (human), sequence (O15527 whole entry C28A): as the sequence (O15527 whole entry, looked up, chain 2 of 2) above, with C28A counted along it
hOGG1 C28A;c-Myc C28A (human;human?), sequence (O15527 whole entry C28A, chain 1 of 2): as the sequence (O15527 whole entry, looked up, chain 2 of 2) above, with C28A counted along it
hOGG1 C28A;c-Myc C28A (human;human?), sequence (P01106 16-454, chain 2 of 2): as the sequence (P01106 16-454, chain 2 of 2) above

With oxoG-E-box AFM substrate the binding signal [1] was 0.29 Myc/DNA and 0.17 Myc/DNA, the binding signal [2] was 0.16 Myc/DNA and the binding signal [3] was 0.12 Myc/DNA and 0.08 Myc/DNA. The binding signal (c-Myc;Max) was 0.14 Myc/DNA and 0.12 Myc/DNA and the binding signal ([4]; 8-oxoguanine 8 bp upstream of E-box, ~50% of length) was 0.29 Myc/DNA and 0.17 Myc/DNA.
In the case of E-box AFM substrate, the binding signal [4] is reported as 0.11 Myc/DNA.
With oxoG 505 bp AFM substrate the binding signal (counts/DNA at oxoG) (hOGG1 C28A C28A (human)) was 0.14, the binding signal (counts/DNA at oxoG) ([5]; oxidising, specificity 294 ± 139, interaction buffer 20 mM Tris-HCl pH 7.6, 200 mM NaCl (Fig. S12), reduci) was 0.09 and the binding signal (counts/DNA at oxoG) ([5]; reducing, specificity 468 ± 197, interaction buffer 20 mM Tris-HCl pH 7.6, 200 mM NaCl (Fig. S12) …) was 0.18. It also gave a binding signal (counts/DNA at oxoG) ([6]; oxidising, specificity 423 ± 155) of 0.17, a binding signal (counts/DNA at oxoG) ([6]; reducing, specificity 517 ± 161) of 0.17 and a binding signal (counts/DNA at oxoG) [7] of 0.14. The binding signal (counts/DNA at oxoG) ([8]; oxidising, specificity 438 ± 217, interaction buffer 20 mM Tris-HCl pH 7.6, 200 mM NaCl (Fig. S12), reduci) was 0.1, the binding signal (counts/DNA at oxoG) ([8]; reducing, specificity 421 ± 153, interaction buffer 20 mM Tris-HCl pH 7.6, 200 mM NaCl (Fig. S12) …) was 0.15 and the binding signal (counts/DNA at oxoG) ([9]; oxidising, specificity 421 ± 252, interaction buffer 20 mM Tris-HCl pH 7.6, 200 mM NaCl (Fig. S12), reduci) was 0.19. For the same substance, the binding signal (counts/DNA at oxoG) ([9]; reducing, specificity 456 ± 289, interaction buffer 20 mM Tris-HCl pH 7.6, 200 mM NaCl (Fig. S12) …) was 0.12 and the binding signal ([4]; 8-oxoguanine at ~50% (49.8%) of length) was 0.15 Myc/DNA and 0.06 Myc/DNA.
